Measured values reported in PMC314469, “Protein Interaction Networks by Proteome Peptide Scanning” (PLoS Biology, 2004).

Molecular target: T1, Abp1 SH3 (ABP1_YEAST), P15891
T1 chain: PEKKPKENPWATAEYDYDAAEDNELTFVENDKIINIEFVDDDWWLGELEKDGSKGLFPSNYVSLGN
Assay: SPOT array

Binder | normalised SPOT signal, Boehringer light units (BLU); mean over the file's lines of this peptide
NSSSKKTSSHPSRP [YER047C 483-496] | 73.4
NRPSVSHSQSPKRP [YNL080C 288-301] | 704
NSQPVSYPRVSKP [YPL007C 81-93] | 220
NRADTLDPALLRP [YDR394W 319-331] | 87.6
NRPDTLDPALLRP [YOR259C 328-340] | 0
PSYSDTHLHGPFKP [YER134C 18-31] | 80.2
NRPNSVDPALRRP [YLR397C 390-402] | 225
NLVQSIDPNHSKP [YPL075W 339-351] | 169
NYNSNNNAGSPIRP [YGL073W 519-532] | 58.5
NSNGPTPAVLPQKP [YDL053C 27-40] | 56
NRTQRKTPTVIRP [YPL093W 23-35] | 330
NYVALWAKFFPEKP [YGR024C 108-121] | 103
NSLLVLDPTYVKP [YOR198C 294-306] | 14.6
PANSTNNSNEPIRP [YMR081C 97-110] | 131
NSSFFNQPPVHRP [YPR185W 391-403] | 20.4
NVTDPLAAIYPSRP [YGR237C 285-298] | 40.9
NRPAIRIPSLKKP [YML102W 307-319] | 5260
NRPDMIDPAMLRP [YLL034C 677-689] | 19.2
NSSQRSQLRFPEKP [YNL139C 1491-1504] | 705
NLVNIWKPDFERP [YJR140C 1438-1450] | 130

Binder | normalised SPOT signal, Boehringer light units (BLU); mean over the file's lines of this peptide
NVDDSVLRQKPDKP [YMR032W 377-390] | 116
NRNTLSTPEEKKP [YER109C 669-681] | 201
NNSGTGFPELYKP [YDR527W 27-39] | 24.7
NSAPQLTVPEPSKP [YNL034W 542-555] | 89.3
NSTAAAPIAAPKKP [YGL025C 234-247] | 201
NVSSSSQPASSRP [YBL081W 344-356] | 136
NSLIIGVDIVPMKP [YCL054W 71-84] | 175
NPIEHVKPIHIKP [YLR201C 20-32] | 66.7
PAKQKTPPSPAKP [YBR102C 23-35] | 557
NNNNLDKPKVKRP [YOL148C 556-568] | 8720
NSMTGIAQILPTKP [YLR082C 61-74] | 185
NRPNTLDPALLRP [YKL145W 356-368] | 89.2
NRLDILDPALLRP [YGL048C 295-307] | 101
NMPFTLNQSHPFKP [YMR067C 315-328] | 140
NPELEKLSVHPLKP [YNL106C 1166-1179] | 66.1
NVLFIKIPMFLRP [YGL195W 2278-2290] | 79.2
NRPDQIDPAILRP [YDL126C 634-646] | 45.4
NTMVEMKRKKPVRP [YDR436W 382-395] | 1120
NSLDLNQADNPLRP [YLL019C 65-78] | 23.6
NRMKIMMSMEPKKP [YDL240W 709-722] | 810

Binder | normalised SPOT signal, Boehringer light units (BLU); mean over the file's lines of this peptide
NQTPAQGPPLRRP [YDR479C 205-217] | 8650
NSSATKTPFVRRP [YGR285C 16-28] | 4320
PAGINDSPSPVKP [YGR092W 45-57] | 117
NNPSNSIPKIEKP [YCL014W 1345-1357] | 108
NRPDAVDPALRRP [YGR270W 562-574] | 53.9
NPSNKSIPFWKRP [YNL034W 381-393] | 342
PDEVLTKMNAPQKP [YCR004C 43-56] | 81.4
NVTFRRDPNSFRP [YDR091C 569-581] | 363
NVYKIYNHVMPLKP [YNL236W 155-168] | 0
NLTTTSKPSLPEKP [YPR171W 329-342] | 610
NRIQGNLHFAPGKP [YAL042W 215-228] | 253
NNNQQKTPKLIKP [YJL087C 616-628] | 48.3
NPAPLTNTYIPYKP [YML020W 157-170] | 150
NYSIKYMLLEPSKP [YPL008W 555-568] | 103
NVTKETKEILPVKP [YCL014W 801-814] | 43
NPVVATDPVAAKP [YFL049W 597-609] | 79
NNPPQMVPKGVRP [YOR188W 1010-1022] | 1040
NSEMASLPISPRP [YDR359C 196-208] | 64.9
